± gives the standard deviation of the averaged measurements.
B1: library; a variant is named by its letters at N, in order (parent)
chain: GCUGUCACCGGAAUACCAGCAUCGUCUUGAUGCCCUUGGAAGUCCGGUCUGAUGAGUCCNNNNNGGACGAAACAGC

How the values were obtained:
theophylline [1] = variants of: B1; assay: FACS-Seq fitted mean relative fluorescence mCherry/BFP without ligand (log10 relative fluorescence); higher = higher reporter protein expression; details: HEK293T, ligand present: no
How it was run: (§1)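 Cells were sorted into 6 bins on the mCherry/BFP ratio after 48 h with or without ligand. These were enriched HEK293T cells transduced by lentivirus with a ribozyme-switch mCherry reporter plus an EF1α-BFP marker. Fluorescence was obtained by fitting a normal distribution to sequencing-derived bin counts. Counts came from MiSeq sequencing of PCR-amplified, barcoded genomic DNA, binned by log10(mCherry/BFP), with means scaled to five spiked-in control ribozymes.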

theophylline [2] = variants of: B1; assay: normalized RNA/DNA level with ligand (relative to sTRSVctl = 100) (log10 (% of sTRSVctl)); higher = less ribozyme self-cleavage, higher mRNA level; details: ligand concentration (+) RNA-Seq: 5 mM, HEK293T, reporter: mCherry (pCS4076), ligand present: yes
How it was run: (§2)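 RNA level was computed as RNA reads over DNA reads divided by a spiked-in non-cleaving sequence or by the top sequences, then scaled and log-transformed. Scaling was ×100 with log10, the top group was 25 sequences, and the threshold was ≥100 DNA reads. The reads came from HEK293T cells transfected at 4 µg per 6-well well with ribozyme switch library plasmids (mCherry, or eGFP in some ligand experiments). Total RNA was extracted with EDTA 72 h after transfection, with any ligand added 1 h before it.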

theophylline [3] = variants of: B1; assay: normalized RNA/DNA level without ligand (relative to sTRSVctl = 100) (log10 (% of sTRSVctl)); higher = less ribozyme self-cleavage, higher mRNA level; details: HEK293T, reporter: mCherry (pCS4076), ligand present: no
How it was run: as §2

theophylline [4] = variants of: B1; assay: FACS-Seq fitted mean relative fluorescence mCherry/BFP with ligand (log10 relative fluorescence); ligand concentration (+) FACS-Seq: 1 mM; higher = higher reporter protein expression; details: HEK293T, ligand present: yes
How it was run: as §1

Variant	FACS-Seq fitted mean (log10) (theophylline [1])	normalized RNA/DNA level with ligand (log10) (theophylline [2])	normalized RNA/DNA level without ligand (log10) (theophylline [3])	FACS-Seq fitted mean (log10) (theophylline [4])
AUUAU	0.905 ± 0.075	2.01 ± 0.021	1.88 ± 0.097	0.861 ± 0.095
AUUAC	1.05 ± 0.17	1.99 ± 0.021	1.96 ± 0.12	0.926 ± 0.096
AUUAA	0.68 ± 0.04	1.94 ± 0.11	1.74 ± 0.099	0.832 ± 0.041
AUUAG	0.738 ± 0.021	2.049 ± 0.0068	1.9 ± 0.094	0.738 ± 0.013
CAUUC		2.07 ± 0.066	1.92 ± 0.099	
UUUAA	0.514 ± 0.017	2.05 ± 0.08	1.69 ± 0.019	0.695 ± 0.019
UUUAU	0.444 ± 0.021	2.0202 ± 0.001	1.93 ± 0.06	0.417 ± 0.012
UUUAC	0.968 ± 0.059	2.06 ± 0.073	1.98 ± 0.066	0.808 ± 0.084
UCUUC		2.03 ± 0.1	1.97 ± 0.046	
CUUAU	0.864 ± 0.067	2.04 ± 0.071	1.907 ± 0.014	0.901 ± 0.013
CUUAA	0.633 ± 0.018	1.98 ± 0.15	1.61 ± 0.14	0.961 ± 0.12
CUUAC	0.44 ± 0.11	2.04 ± 0.065	1.95 ± 0.15	0.194 ± 0.17
UUUCC	1.01 ± 0.062	1.99 ± 0.028	1.97 ± 0.04	0.9258 ± 0.0036
AUGUU	0.847 ± 0.054	1.93 ± 0.068	1.87 ± 0.031	0.8299 ± 0.0036
AUGUA	0.696 ± 0.018	1.97 ± 0.11	1.77 ± 0.046	0.908 ± 0.042
AUGUC	0.983 ± 0.034	1.99 ± 0.11	1.84 ± 0.066	0.935 ± 0.12
AUGUG	0.254 ± 0.065	1.96 ± 0.097	1.87 ± 0.029	0.295 ± 0.11
GUCUG	0.742 ± 0.06	1.96 ± 0.074	1.87 ± 0.11	0.898 ± 0.069
CUGGA	1.07 ± 0.09	2.02 ± 0.043	1.84 ± 0.095	1.09 ± 0.045
CUGUC	0.555 ± 0.065	2.021 ± 0.014	1.99 ± 0.021	0.5114 ± 0.0041
CUGUA	0.501 ± 0.02	2.08 ± 0.067	1.61 ± 0.052	0.643 ± 0.013
CUGUU	-0.291 ± 0.011	1.93 ± 0.061	1.81 ± 0.07	-0.12 ± 0.062
CUCUC	0.298 ± 0.1	2.03 ± 0.027	1.95 ± 0.045	0.448 ± 0.12
CUCUU	0.739 ± 0.01	2.032 ± 0.0025	1.91 ± 0.07	0.874 ± 0.038
CUCUA	0.786 ± 0.075	2.05 ± 0.018	1.78 ± 0.063	0.994 ± 0.09

Variant	FACS-Seq fitted mean (log10) (theophylline [1])	normalized RNA/DNA level with ligand (log10) (theophylline [2])	normalized RNA/DNA level without ligand (log10) (theophylline [3])	FACS-Seq fitted mean (log10) (theophylline [4])
AUGCA	0.792 ± 0.023	2.023 ± 0.014	1.841 ± 0.0049	0.96 ± 0.14
AUGCG	0.848 ± 0.14	1.99 ± 0.11	1.87 ± 0.06	0.986 ± 0.1
AUGCC	0.828 ± 0.054	2 ± 0.033	1.96 ± 0.071	0.852 ± 0.022
UUCAA		2.08 ± 0.056	1.86 ± 0.12	
UUGCG	1.18 ± 0.2	1.95 ± 0.094	1.82 ± 0.08	1.12 ± 0.074
UUGCC	0.794 ± 0.064	1.99 ± 0.067	1.95 ± 0.021	0.78 ± 0.06
UUGCU	0.987 ± 0.11	1.94 ± 0.083	1.91 ± 0.03	0.922 ± 0.042
GUUUG	0.972 ± 0.24	1.96 ± 0.091	1.77 ± 0.058	0.929 ± 0.17
UUGUG	0.172 ± 0.13	1.96 ± 0.09	1.868 ± 0.014	0.266 ± 0.051
UUGUA	0.431 ± 0.12	1.88 ± 0.029	1.53 ± 0.21	0.555 ± 0.051
UUGUC	0.132 ± 0.031	1.99 ± 0.027	2.01 ± 0.063	0.305 ± 0.035
GUGAU	-0.224 ± 0.019	2 ± 0.12	1.66 ± 0.024	-0.0667 ± 0.046
AUGGU	0.596 ± 0.13	2.02 ± 0.032	1.78 ± 0.044	0.728 ± 0.049
AUGGC	0.932 ± 0.11	2.008 ± 0.0029	1.88 ± 0.085	0.903 ± 0.041
AUGGA	0.368 ± 0.04	1.94 ± 0.043	1.68 ± 0.16	0.63116 ± 0.00056
CUUUC	1.07 ± 0.048	2.07 ± 0.067	2 ± 0.092	0.998 ± 0.19
CUUUU	1.04 ± 0.014	1.992 ± 0.0085	1.91 ± 0.045	1.15 ± 0.12
CUGCC	0.906 ± 0.094	2.09 ± 0.045	1.9591 ± 0.0014	0.841 ± 0.055
CUGCU	0.644 ± 0.032	1.92 ± 0.082	1.86 ± 0.062	0.658 ± 0.0024
AUGAU	0.439 ± 0.07	2.01 ± 0.086	1.75 ± 0.12	0.262 ± 0.027
AUGAA	0.317 ± 0.045	1.94 ± 0.04	1.52 ± 0.074	0.5036 ± 0.0038
AUGAC	0.5991 ± 0.0031	1.914 ± 0.016	1.87 ± 0.16	0.786 ± 0.021
AUGAG	0.655 ± 0.014	1.914 ± 0.0079	1.812 ± 0.0077	0.868 ± 0.029
UUGGA	0.406 ± 0.064	2.01 ± 0.037	1.59 ± 0.14	0.494 ± 0.023
CUUCC	0.782 ± 0.05	2.02 ± 0.059	2.032 ± 0.0046	0.683 ± 0.091

Variant	FACS-Seq fitted mean (log10) (theophylline [1])	normalized RNA/DNA level with ligand (log10) (theophylline [2])	normalized RNA/DNA level without ligand (log10) (theophylline [3])	FACS-Seq fitted mean (log10) (theophylline [4])
AUCUA	0.874 ± 0.15	1.99 ± 0.087	1.89 ± 0.12	0.828 ± 0.069
AUCUU	0.605 ± 0.046	2.03 ± 0.055	1.93 ± 0.086	0.585 ± 0.0056
AUCUC	0.832 ± 0.12	2.03 ± 0.032	1.97 ± 0.013	0.758 ± 0.14
GUUGU	0.526 ± 0.054	1.93 ± 0.19	1.84 ± 0.058	0.701 ± 0.16
UUUUU	0.93 ± 0.071	2.01 ± 0.027	1.95 ± 0.15	0.991 ± 0.017
UUUUC	0.917 ± 0.042	2.01 ± 0.077	1.99 ± 0.18	0.94 ± 0.041
UUGAU	0.68 ± 0.041	2.06 ± 0.1	1.82 ± 0.044	0.708 ± 0.03
UUGAA	0.273 ± 0.006	1.94 ± 0.08	1.29 ± 0.064	0.619 ± 0.026
UUGAC	0.872 ± 0.033	2.05 ± 0.042	1.93 ± 0.075	0.849 ± 0.085
UUCUU	0.641 ± 0.06	2.03 ± 0.11	1.99 ± 0.057	0.58 ± 0.037
UUCUC	1.19 ± 0.051	1.99 ± 0.049	1.94 ± 0.057	1.15 ± 0.13
AUUUU	0.213 ± 0.053	2.02 ± 0.043	1.88 ± 0.062	0.194 ± 0.022
AUUUA	0.734 ± 0.078	2 ± 0.11	1.8 ± 0.08	0.834 ± 0.062
AUUUG	0.103 ± 0.037	2.03 ± 0.083	1.93 ± 0.17	0.184 ± 0.037
AUUUC	1 ± 0.085	2.01 ± 0.07	1.97 ± 0.11	0.865 ± 0.018
CUGAA	0.3855 ± 0.0027	2.006 ± 0.0026	1.317 ± 0.0043	0.763 ± 0.15
CUGAU	1.02 ± 0.13	1.995 ± 0.013	1.7215 ± 0.00053	1.07 ± 0.082
CUGAC	0.906 ± 0.093	1.99 ± 0.056	1.99 ± 0.11	0.902 ± 0.031
AUUCA	0.9176 ± 0.0013	2.04 ± 0.066	1.83 ± 0.15	0.971 ± 0.12
AUUCC	0.959 ± 0.011	1.99 ± 0.1	1.95 ± 0.072	0.909 ± 0.08
UUUGU	0.965 ± 0.067	2.07 ± 0.082	2.02 ± 0.041	0.8623 ± 0.0024
UUUGA	0.62 ± 0.055	2.09 ± 0.097	1.94 ± 0.021	0.856 ± 0.079
UUUGC		2.05 ± 0.042	1.93 ± 0.023	
